Reference: US20250332300A1 (priority 2024, published 2025)
Values belong to the molecule of their own block, whether it stands above or below them. Positions of bridges follow the written chain, without caps; N, C: chain ends. Non-standard residues stand in square brackets, D forms with d. *: point of attachment. X4 = 4‑(carboxymethyl)piperazine‑1‑carbonyl, O=C(O)CN1CCN(C(=O)*)CC1; DOTA = O=C(O)CN1CCN(CC(=O)O)CCN(CC(=O)*)CCN(CC(=O)O)CC1; Trp(5-OH) = N[C@@H](Cc1c[nH]c2ccc(O)cc12)C(=O)O; NMePhe(4-F) = CN[C@@H](Cc1ccc(F)cc1)C(=O)O; NMehPhe = CN[C@@H](CCc1ccccc1)C(=O)O; Aad = N[C@@H](CCCC(=O)O)C(=O)O; aThr = C[C@H](O)[C@H](N)C(=O)O; NMeK = CN[C@@H](CCCCN)C(=O)O; NMeDap = CN[C@@H](CN)C(=O)O; NMeC = CN[C@@H](CS)C(=O)O; NMeS = CN[C@@H](CO)C(=O)O; CproG = not defined here; Dap = NC[C@H](N)C(=O)O

Key:
[1] = format: physicochemical
Protocol: Radio-HPLC Analytical Method: Eluent A: Water+0.1% TFA; Eluent B: ACN+0.1% TFA; Column temperature: 25° C.; Flow: 1.0 mL/min; Column: […] Gradient: hold 10% B for 1 min, from 10 to 80% B in 8 min, hold 80% B for 2 min, from 80 to 15% B in 1 min. The initial radiochemical purity of [^68Ga]Ga-labeled compounds was analyzed by radio-HPLC and the stability in solution at 24° C. was evaluated 4 h after the end of synthesis by radio-HPLC.

[2] = test system: subcutaneous JimT1 tumors; set-up: species or system Nu (NCr)-Foxnlnu-homozygous mice; settings: mouse, in vivo, iv
Protocol: Biodistribution studies were performed at Minerva Imaging. All animal experimentation was carried out under a license approved by the National Animal Experiments Inspectorate under the Ministry of Environment and Food of Denmark, and further approved by the Novartis Animal Welfare Office. Biodistribution studies were performed in Nu (NCr)-Foxnlnu-homozygous mice bearing subcutaneous JimT1 tumors. Mice were subcutaneously implanted with 2×10^6 JimT1 cells into right flank. The biodistribution studies were typically performed when tumors were approximately 200 mm^3 in volume. Compounds according to Examples H1 and H2 were prepared as described in the radiochemistry part (Section 9). Animals were single dose administered with an activity concentration of 4 MBq/nmol per animal. The biodistribution of the compounds was assessed using conventional ex vivo biodistribution at different time points (1, 4, 24 and 72 hrs) after intravenous injection of Lu-177 labelled compounds. Mice were euthanized and organs were collected, weighed, and placed inside counting vials. Organ uptake was assessed by gamma counting using an automated gamma counter for 60 seconds immediately after tissue collection. Tissue counts and injected doses for individual animals were decay-corrected to the time of injection. […] Results expressed as a percentage of injected dose per gram of the tissue (% ID/g).

[3] = molecular target: T1, human HER2 (23-652) (Homo sapiens, UniProt P04626); assay: TR-FRET competition assay for peptide potency, human HER2; format: binding; set-up: towards human HER2 (23-652) and mouse HER2 (23-653); made in house; host or cells: mammalian cells; settings: read-out: huHER2 TR-FRET IC50
[4] = molecular target: T2, mouse HER2 (23-653) (Mus musculus, UniProt P70424); assay: Surface plasmon resonance (SPR) for assessment of peptide affinity, mouse HER2; format: binding; settings: SPR, mouse HER2 extracellular domain, 25° C., 1:1 binding model; read-out: moHER2-SPR-ONC KD
T2 sequence (P70424 23-653): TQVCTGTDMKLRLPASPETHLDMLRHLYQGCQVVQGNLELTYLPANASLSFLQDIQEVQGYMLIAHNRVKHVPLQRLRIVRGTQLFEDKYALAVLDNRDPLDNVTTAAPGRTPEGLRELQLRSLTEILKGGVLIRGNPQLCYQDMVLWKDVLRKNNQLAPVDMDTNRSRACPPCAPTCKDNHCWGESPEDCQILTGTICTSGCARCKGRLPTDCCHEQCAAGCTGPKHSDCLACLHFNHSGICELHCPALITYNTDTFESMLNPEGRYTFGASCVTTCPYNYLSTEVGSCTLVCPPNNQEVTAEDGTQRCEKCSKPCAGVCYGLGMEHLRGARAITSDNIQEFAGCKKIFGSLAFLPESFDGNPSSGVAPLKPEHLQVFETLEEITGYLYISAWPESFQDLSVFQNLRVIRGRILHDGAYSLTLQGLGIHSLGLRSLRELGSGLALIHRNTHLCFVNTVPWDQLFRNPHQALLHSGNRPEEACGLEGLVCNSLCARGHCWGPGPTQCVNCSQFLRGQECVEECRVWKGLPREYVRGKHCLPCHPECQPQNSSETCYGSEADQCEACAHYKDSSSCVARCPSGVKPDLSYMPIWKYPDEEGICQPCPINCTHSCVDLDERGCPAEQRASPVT
Source text: Each protein was immobilized either onto a SA sensorchip (Cytiva, BR-1005-31) or CM5 sensorchip (Cytiva, BR-1005-30) to a density of 800-2000 RU.

[5] = molecular target: T1, human HER2 (23-652); assay: Surface plasmon resonance (SPR) for assessment of peptide affinity, human HER2; format: binding; settings: SPR, human HER2 extracellular domain, 25° C., 1:1 binding model; read-out: huHER2-SPR-ONC KD
Protocol: Each protein was immobilized either onto a SA sensorchip (Cytiva, BR-1005-31) or CM5 sensorchip (Cytiva, BR-1005-30) to a density of 800-2000 RU. […] For the assay setup the same conditions (flow rate, running buffer, peptide dilution) as described above were used. In a first step the Anti Fc IgG Ab (from Human Antibody Capture Kit, Ref. 29234600, Cytiva) was diluted into acetate pH 5.0 at 25 ug/mL and immobilized at a flow rate of 10 uL/min over 360 s to reach a density around 6000 RU. […] The peptides were tested with an association time of 280 s followed by a dissociation time of 3000 s at a flow rate of 30 uL/min. The regeneration was done using 3 M magnesium chloride regeneration solution as obtained with a contact time of 30 s at a flow rate of 10 uL/min. Curve fitting was performed using the BiacoreTM 8K evaluation software.

[6] = molecular target: T2, mouse HER2 (23-653); assay: TR-FRET competition assay for peptide potency, mouse HER2; format: binding; set-up: mouse HER2 (23-653) using a Cy5 labeled peptide as a probe; made in house; host or cells: mammalian cells; settings: TR-FRET competition with Cy5 labeled peptide probe, 0.1 nM mouse HER2, 24 h incubation; read-out: moHER2 TR-FRET IC50
[7] = molecular target: T3, mouse HER2 (23-653), biotinylated, His tag, Avi tag (mouse, UniProt P70424 23-653, biotin (Avi tag)); assay: SPR, HER2 on chip, 25 C
T3 construct: range 23-653; in-house protein expressed in mammalian cells; also called moHER2; not shown: His tag and Avi tag, said to be at the N-terminus for the TR-FRET protein
T3 sequence (P70424 23-653 limits assumed): as the sequence (P70424 23-653) above

[8] = molecular target: T4, human HER2 (23-652), biotinylated, His tag, Avi tag (human, UniProt P04626 23-652, biotin (Avi tag)); assay: SPR, HER2 on chip, 25 C
T4 construct: range 23-652; TR-FRET used the in-house 23-652 protein; also called huHER2; human epidermal growth factor receptor 2; not shown: His tag and Avi tag, said to be at the N-terminus for the TR-FRET protein

[9] = molecular target: T3, mouse HER2 (23-653), biotinylated, His …; assay: TR-FRET competition vs Cy5 peptide probe
[10] = molecular target: T4, human HER2 (23-652), biotinylated, His …; assay: TR-FRET competition vs Cy5 peptide probe
[11] = molecular target: human HER2 (23-652), biotinylated, His tag, Avi tag (human) (UniProt P04626); assay: TR-FRET competition vs Cy5 peptide probe; TR-FRET competition, IC50
[12] = molecular target: mouse HER2 (23-653), biotinylated, His tag, Avi tag (mouse) (UniProt P70424); assay: SPR, HER2 on chip, 25 C
mouse HER2 (23-653), biotinylated, His tag, Avi tag (mouse), sequence (P70424 23-653 limits assumed): as the sequence (P70424 23-653) above

Molecule: CC(=O)NCCCC[C@H]1C(=O)N[C@@H](Cc2c[nH]c3ccc(O)cc23)C(=O)N[C@@H](Cc2c[nH]c3ccccc23)C(=O)N[C@@H](C2CC2)C(=O)N(C)[C@H](C(=O)N(C)[C@@H](Cc2ccc(F)cc2)C(=O)N[C@@H](CCCCNC(=O)CN2CCN(CC(=O)O)CCN(CC(=O)O)CCN(CC(=O)O)CC2)C(N)=O)CNC(=O)CCC[C@H](NC(C)=O)C(=O)N[C@@H](Cc2ccc(O)cc2)C(=O)N[C@@H](CO)C(=O)N(C)[C@@H](CCc2ccccc2)C(=O)N1C [Example I2, Example B1 labelled with ^68Ga, metal not drawn]
Radiochemical purity by radio-HPLC, stability in solution, 4 h [1]: 97.2%

Molecule: COCCOCCOCCOCCOCCOCCOCCOCCOCCOCCOCCOCCC(=O)N[C@H]1CCCC(=O)NC[C@@H](C(=O)N(C)[C@@H](Cc2ccc(F)cc2)C(=O)N[C@@H](CCCCNC(=O)CN2CCN(CC(=O)O)CCN(CC(=O)O)CCN(CC(=O)O)CC2)C(N)=O)N(C)C(=O)[C@H](C2CC2)NC(=O)[C@H](Cc2c[nH]c3ccccc23)NC(=O)[C@H](Cc2c[nH]c3ccc(O)cc23)NC(=O)[C@H](CCCCNC(C)=O)N(C)C(=O)[C@H](CCc2ccccc2)N(C)C(=O)[C@H](CO)NC(=O)[C@H](Cc2ccc(O)cc2)NC1=O [Example H1, Example B2 labelled with ^177Lu, metal not drawn]
tumor/normal tissue ratios [2]: favorable tumor/normal tissue ratios

Molecule: COCCOCCOCCOCCOCCOCCOCCOCCOCCOCCOCCOCCC(=O)N[C@H]1CCCC(=O)NC[C@@H](C(=O)N(C)[C@@H](Cc2ccc(F)cc2)C(=O)N[C@@H](CCCCNC(=O)CN2CCN(CC(=O)O)CCN(CC(=O)O)CCN(CC(=O)O)CC2)C(N)=O)N(C)C(=O)[C@H](C2CC2)NC(=O)[C@H](Cc2c[nH]c3ccccc23)NC(=O)[C@H](Cc2c[nH]c3ccc(O)cc23)NC(=O)[C@H](CCCCNC(C)=O)N(C)C(=O)[C@H](CCc2ccccc2)N(C)C(=O)[C@H](CO)NC(=O)[C@H](Cc2ccc(O)cc2)NC1=O [Example I1, Example B2 labelled with ^68Ga, metal not drawn]
Radiochemical purity by radio-HPLC, stability in solution, 4 h [1]: 97.2%

B3: Example A54 (peptide)
peptide: H-CYS[NMehPhe][NMeS][Trp(5-OH)]W[cProG][NMeC][NMePhe(4-F)]-NH2
modifications: disulfide 1-9
Kd [12]: 5300 nM

Continued, values first:

IC50 [3]: < 0.1 nM
Kd [4]: < 0.1 nM
Kd [5]: < 0.1 nM
IC50 [6]: 0.2 nM
Molecule: CC(=O)NCCCC[C@H]1C(=O)N[C@@H](Cc2c[nH]c3ccc(O)cc23)C(=O)N[C@@H](Cc2c[nH]c3ccccc23)C(=O)N[C@@H](C2CC2)C(=O)N(C)[C@H](C(=O)N(C)[C@@H](Cc2ccc(F)cc2)C(=O)N[C@@H](CCCCNC(=O)c2ccc([N+](C)(C)C)nc2)C(N)=O)CNC(=O)CCC[C@H](NC(C)=O)C(=O)N[C@@H](Cc2ccc(O)cc2)C(=O)N[C@@H](CO)C(=O)N(C)[C@@H](CCc2ccccc2)C(=O)N1C [Example F2]

Kd [7]: 11 nM
Kd [8]: 5.1 nM
IC50 [9]: 17 nM
IC50 [10]: 4.2 nM
B1: Example C26 (peptide)
peptide: Ac-EY[Dap](DOTA)[NMehPhe][NMeK](Ac)[Trp(5-OH)]W[aThr][NMeDap][NMePhe(4-F)]K(X4)-NH2
modifications: lactam 1-9; also: DOTA complexed with 175Lu

IC50 [11]: 9820 nM
B2: Example C32 (peptide)
peptide: Ac-[Aad]YS[NMehPhe][MeKAc][Trp(5-OH)]A[CproG][NMeDap][NMePhe(4-F)]K(DOTA)-NH2
modifications: lactam 1-9; reading uncertain; also: DOTA complexed with 175Lu
